The target of experiment [1] is T1, recombinant human TGFβ2 (human, UniProt P61812 303-414).
T1 construct: mature; also called TGFbeta2; rhTGFβ2
T1 sequence (looked up): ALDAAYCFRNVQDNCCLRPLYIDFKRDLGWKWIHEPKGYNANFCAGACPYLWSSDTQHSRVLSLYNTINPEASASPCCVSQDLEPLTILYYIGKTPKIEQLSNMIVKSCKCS
Briefly: radioreceptor assay, inhibition of 125I-TGFβ2 binding to A549 cells; concentration of antibody combining sites. As for the experimental part: (§1) Cells are seeded at 1-2×10^5 cells/ml/well into the wells of 24-well cluster plates and grown for 24 h in serum-free DMEM. Cell monlayers are washed twice with serum-free DMEM and 0.5 ml binding medium (DMEM/Hams F12 (Sigma D-6421) containing 0.1% (v/v) BSA added to each well.
(§2) Aliqouts of ¹²⁵I-TGFβ1 or TGFβ2 (70-90 TBq/mmol; Amersham International) at 20 pM are preincubated with antibody in binding medium at room temperature for 1 h. Duplicate samples of 0.5 ml of TGFβ/antibody mixtures are then added to the cell monlayers and are incubated at 37° C. for 1-2 h. Control wells contain TGFβ only. Unbound TGFβ is removed by washing 4 times with Hank's balanced salt solution containing 0.1% BSA. Cells are solubilised in 0.8 ml 25 mM Tris HCl pH 7.5, 10% glycerol, 1% Triton X-100 at room temperature for 20 min. The contents of each well are removed and ¹²⁵I measured in a gamma counter.

The target in experiment [2] is T2, recombinant human TGFβ1 (human, UniProt P01137 279-390).
T2 construct: mature; also called TGFbeta1
Briefly: radioreceptor assay, inhibition of 125I-TGFβ1 binding to A549 cells; concentration of antibody combining sites. As for the experimental part:
as §1, §2

Experiment [3] has as its target T2, recombinant human TGFβ1. Put plainly: BIACore, scFv. The procedure: (§3) The off-rates for binding to TGFβ1 or TGFβ2 of the single chain Fv fragments described in this example were determined as described by Karlsson et al (R. Karlsson et al, J. Immunol. Methods 145, 229-240, 1991). The results obtained are shown in Table 2, together with dissociation constants for those which have been determined.
On the technique in general: Surface plasmon resonance follows binding to a sensor surface in real time, without labels.

Experiment [4] concerns the target T2, recombinant human TGFβ1. Put plainly: radioreceptor assay, inhibition of 125I-TGFβ1 binding to A549 cells, Example 9.
For experiment [5], the target named is T1, recombinant human TGFβ2. Put plainly: BIACore, scFv injected over immobilised antigen. As for the experimental part:
(§4) The antibodies were also shown to be specific for TGFβ2 compared to TGFβ1 by relative binding to theBIACore sensor chips coated with the appropriate antigen. TGFβ1 and TGFβ2 were immobilised by amine coupling to Biosensor CM5 sensorchips (Pharmacia) according to the manufacturers instructions. […] The amount of TGFβ bound was assessed as the total increase in resonance units (RUs) over this period.

Experiment [6] concerns the target T2, recombinant human TGFβ1. Put plainly: BIACore, scFv injected over immobilised antigen. The procedure: as §4
Experiment [7] deals with T1, recombinant human TGFβ2. Put plainly: cell-based or functional assay.
Experiment [8] has as its target T1, recombinant human TGFβ2. Briefly: BIACore, scFv. As for the experimental part: as §3
Experiment [9] has as its target T1, recombinant human TGFβ2. Put plainly: BIAcore 2000, antigen immobilised, antibody as analyte. As for the experimental part: The immobilisation of ligand is automated by the BIACore 2000 machine, and all steps are carried out in the autosampler or in the flowcell, on the dextran surface of the chip. The buffer used throughout the immobilisation procedure, and the analysis of samples is Hepes-buffered saline (HBS) with a surfactant (Pharmacia Biosensor). The chips (Pharmacia, CM5), have dextran coating on a thin layer of gold. NHS at 100 mM and EDC at 400 mM are mixed by the autosampler, and then a fixed volume is injected over the flowcell surface. This is followed by an injection of antigen in a suitable buffer. In the case of TGFβ, a surface of the correct density was given by using 25-30 μg/ml solution of TGFβ2 (AMS) OR TGFβ3 (R & D systems) in 10 mM acetate. After injection of the ligand, the chip is blocked using 1M ethanolamine. The total amount of TGFβ bound was assessed from the total increase in resonance units over this period.
(§5) To determine the kinetic parameters, a series of dilutions of the antibody samples was made in HBS from about 500 μg/ml down to less than 1 μg/ml, usually through doubling dilutions. After the antibody has been injected over the antigen surface, the surface is washed with HBS, then regenerated by stripping off the bound antibody with a pulse of 100 mM HCl. At the higher concentrations of antibody the antigen on the chip surface is saturated, and the off rate is determined on washing with buffer in the dissociation phase. For determination of the on-rate, lower concentrations of antibody are used, giving a linear binding phase in the sensorgram, allowing kₒₙ determination.
(§6) 6B1 IgG4 was purified from the GS/NS0 cell line of Example 10 as in Example 2. 6B1 single chain Fv was expressed intracellularly in E. coli, refolded in vitro (using the methodology of WO94/18227), and purified to give a homogeneous product. The values of kₒₙ and koff were determined for 6B1 IgG4 for binding to both TGFβ2 and TGFβ3, and for the single-chain Fv 6B1 for binding to TGFβ2. The dissociation constant was calculated by dividing koff by kₒₙ.

Experiment [10] concerns the target T1, recombinant human TGFβ2. Put plainly: BIAcore 2000, koff divided by kon. The procedure:
as §5, §6

T2 sequence (P01137 279-390 limits assumed): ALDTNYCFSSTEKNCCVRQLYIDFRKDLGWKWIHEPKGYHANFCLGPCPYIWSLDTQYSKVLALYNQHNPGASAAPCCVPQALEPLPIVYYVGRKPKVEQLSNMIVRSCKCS

B1: 11E6 IgG (antibody, V domains shown)
VH: EIQLVESGGGVVQPGRSLRLSCAASGFTFSSYAMHWVRQAPAKGLEWVAVISYDGSNKYYADSVKGRFTISRDNSKNTLYLQMNSLRAEDTAVYYCARAGLETTWGQGTLVTVSS
VL: EVVLTQSPSSLSASVGDRVTITCRASQGIGDDLGWYQQKPGKAPILLIYGTSTLQSGVPSRFSGSGSGTDFTLTINSLQPEDFATYYCLQDSNYPLTFGGGTRLEIKR
notes: its construction as a whole antibody is not described
Regarding B1, the half-maximal inhibitory concentration (IC50) (as a rule, the point on the concentration scale where inhibition reaches its midpoint) in [1] is 1.6 nM.

B2: 31G9 scFv (scFv)
scFv: QVQLVQSGGGVVQPGRSLRLSCAASGFTFSSYGMHWVRQAPGKGLEWVAVISYDGSIKYYADSVKGRFTISRDNSKNTLYLQMNSLRAEDTAVYYCARTGEYSGYDTSGVELWGQGTTVTVSSGGGGSGGGGSGGGGSDIVMTQSPSTLSASVGDRVTITCRASQGISSWLAWYQQKPGRAPKVLIYKASTLESGVPSRFSGSGSGTDFTLTISSLQPEDFATYYCQQSYSTPWTFGQGTKLEIKR
notes: VH-linker-VL in pCANTAB6; also called 31G9 single chain Fv
Take B2: in experiment [2], the IC50 was 30 nM. Moreover, in experiment [3], the Kd (as a rule, the concentration at which binding is half-saturated) turned out to be 12 nM and the koff (usually a measure of how fast the partners let go of each other) came to 0.0009 s⁻¹.

B3: CS39 scFv (scFv)
scFv: QVQLVQSGGGVVQPGRSLRLSCAASGFTFSSYGMHWVRQAPGKGLEWVAVISYDGSIKYYADSVKGRFTISRDNSKNTLYLQMNSLRAEDTAVYYCARTGEYSGYDTSGVELWGQGTTVTVSSGGGGSGGGGSGGGGSDVVMTQSPSSLSASVGDRVTITCRASQGISNYLAWYQQKPGKAPKLLIYKASTLESGVPSRFSGSGSGTEFTLTISSLQPEDFATYYCQQSYSTPRTFGQGTKVDIKR
For the molecule B3, the half-maximal inhibitory concentration (IC50) in experiment [2] is roughly 60 nM. The koff in experiment [3] turned out to be 0.0017 s⁻¹.

B4: CS37 scFv (scFv)
scFv: QVQLVQSGGGVVQPGRSLRLSCAASGFTFSSYGMHWVRQAPGKGLEWVAVISYDGSIKYYADSVKGRFTISRDNSKNTLYLQMNSLRAEDTAVYYCARTGEYSGYDTSGVELWGQGTTVTVSSGGGGSGGGGSGGGGSEIVLTQSPSSLSASVGDRVTITCRASQGIGDDLGWYQQKPGKAPILLIYGTSTLQSGVPSRFSGSGSGTDFTLTINSLQPEDFATYYCLQDSNYPLTFGGGTRLEIKR
On to B4, for which, in experiment [4], the half-inhibitory concentration (IC50) was roughly 8 nM.

B5: 14F12 scFv (scFv)
scFv: EIQLVESGGGVVQPGRSLRLSCAASGFTFSSYAMHWVRQAPAKGLEWVAVISYDGSNKYYADSVKGRFTISRDNSKNTLYLQMNSLRAEDTAVYYCARAGLETTWGQGTLVTVSSSGGGGGSGGGGSGGGGSSSELTQDPAVSVALGQTVRITCQGDSLRNYYANWYQQKPGQAPVLVIYGKNNRPSGIPDRFSGSSSGNTASLTITGARAEDEGVYYCNSRDSSGAVFGGGTKLTVLG
In the case of B5, the IC50 in experiment [1] is 3 nM. For the same molecule, the figures for the “increase in resonance units” value in experiment [5] and in [6] were 115 RU and 616 RU, respectively. Besides, the “I.C.50 in TF1 assay (neutralisation of TGFβ2 inhibition of TF1 cell proliferation)” value in experiment [7] turned out to be 90 nM. For the same molecule, in [8], the off-rate constant (koff) came to 0.0021 s⁻¹.

B6: 6B1 scFv (scFv)
scFv: EVQLVESGGGVVQPGRSLRLSCAASGFTFSSYGMHWVRQAPGKGLEWVAVIWYDGSNKYYADSVKGRFTISRDNSKNTLYLQMDSLRAEDTAVYYCGRTLESSLWGQGTLVTVSSGGGGSGGGGSGGGGSSSELTQDPAVSVALGQTVRITCQGDSLRSYYASWYQQKPGQAPVLVIYGKNNRPSGIPDRFSGSSSGNTASLTITGAQAEDEADYYCNSRDSSSTHRGVFGGGTKLTVLG
notes: also called 6B1 single chain Fv
On to B6, for which, in [9], the koff turned out to be 0.000668 s⁻¹ and the kon (commonly the rate constant with which the complex forms) came out at 287000 M⁻¹ s⁻¹. For the same molecule, the half-maximal inhibitory concentration (IC50) in [1] came out at 0.3 nM. Also, in experiment [7], the “I.C.50 in TF1 assay (neutralisation of TGFβ2 inhibition of TF1 cell proliferation)” value came to 15 nM. In addition, the Kd in experiment [10] was determined as 2.32 nM. Moreover, in [8], the off-rate constant (koff) turned out to be 0.0006 s⁻¹.

B7: 7A3 scFv (scFv)
scFv: QVQLVESGGGVVQPGRSLRLSCAASGFTFSSYGMHWVRQAPGKGLEWVAVISYDGSNKYYADSVKGRFTISRDNSKNTLYLQMNSLRAEDTAVYYCAKTGEYSGYDSSGVDVWGKGTTVTVSSGGGGSGGGGSGGGGSDIVMTQSPDSLAVSLGERATINCKSSQSLLYSYNKMNYLAWYQQKPGQPPKLLINWASTRESGVPDRFSGSGSGTDFTLTISSLQAEDVAVYYCQQYYATPLTFGHGTKVEIKR
notes: Light chain shuffle of 1-B2
Regarding B7, the IC50 in [2] was greater than 100 nM.

B8: CS32 scFv (scFv)
scFv: QVQLVQSGGGVVQPGRSLRLSCAASGFTFSSYGMHWVRQAPGKGLEWVAVISYDGSIKYYADSVKGRFTISRDNSKNTLYLQMNSLRAEDTAVYYCARTGEYSGYDTSGVELWGQGTTVTVSSGGGGSGGGGSGGGGSDIVMTQSPDSLAVSLGERATINCKSSQSLLYSYNKMNYLAWYQQKPGQPPKLLINWASTRESGVPDRFSGSGSGTDFTLTISSLQAEDVAVYYCQQYYATPLTFGHGTKVEIKR
As to B8, the results for the IC50 in [4] and in experiment [2] were 40 nM and 4.5 nM, respectively. In addition, in experiment [3], the koff amounted to 0.0012 s⁻¹.

B9: 6H1 scFv (scFv)
scFv: EVQLVESGGGVVQPGRSLRLSCAASGFTFSSYGMHWVRQAPGKGLEWVAVIWYDGSNKYYADSVKGRFTISRDNSKNTLYLQMDSLRAEDTAVYYCGRTLESSLWGQGTLVTVSSGGGGSGGGGSGGGGSDVVMTQSPSSLSASVGDRVTITCRASQGISNYLAWYQQKPGKAPKLLIYKASTLESGVPSRFSGSGSGTEFTLTISSLQPEDFATYYCQQSYSTPRTFGQGTKVDIKR
As for B9, the concentration for half-maximal inhibition (IC50) in [1] was determined as 0.22 nM. For the same molecule, the “increase in resonance units” value in experiment [5] was 77 RU; in experiment [6], 686 RU. The “I.C.50 in TF1 assay (neutralisation of TGFβ2 inhibition of TF1 cell proliferation)” value in [7] amounted to 1.5 nM. In experiment [8], the koff was determined as 0.0011 s⁻¹.

B10: 6A5 scFv (scFv)
scFv: EVQLVESGGGVVQPGRSLRLSCAASGFTFSSYGMHWVRQAPGKGLEWVAVIWYDGSNKYYADSVKGRFTISRDNSKNTLYLQMDSLRAEDTAVYYCGRTLESSLWGQGTLVTVSSGGGGSGGGGSGGGGSSSELTQDPAVSVALGQTVRITCQGDSLRSYYASWYQQKPGQAPVLVIYGKNNRPSGIPDRFAGSNSGNTASLTITGAQAEDEADYYCSSRDSSGNHVVFGGGTKLTVLG
notes: also called 6A5 single chain Fv
As to B10, the IC50 in experiment [1] came to 1.5 nM. The “increase in resonance units” value in experiment [5] worked out at 71 RU. The “increase in resonance units” value in [6] turned out to be 480 RU. The “I.C.50 in TF1 assay (neutralisation of TGFβ2 inhibition of TF1 cell proliferation)” value in experiment [7] was 8 nM. In experiment [8], the Kd amounted to 0.7 nM and the koff was 0.00014 s⁻¹.

(Values after patent US20050049403A1 (CAMBRIDGE ANTIBODY TECHNOLOGY, published 2005).)
